Experimental data published in patent publication US20150266963A1 (ARGEN X B V, published 2015).
Values belong to the binder of their own block, whether it stands above or below them.

Tests used:
[1] = target: T1, recombinant human CD70 (Flag-TNC-CD70) (human, UniProt P32970 39-193); experiment: inhibition ELISA; Flag-TNC-CD70 captured by anti-Flag mAb; competitor CD27-Fc
T1 construct: extracellular domain; Captured by anti-Flag mAb in ELISA; as 'recombinant human CD70' immobilised on Biacore CM5 chips; TNC is for trimerisation; also called recombinant CD70; human recombinant CD70; not shown: Flag tag and TNC trimerisation domain
T1 sequence (looked up): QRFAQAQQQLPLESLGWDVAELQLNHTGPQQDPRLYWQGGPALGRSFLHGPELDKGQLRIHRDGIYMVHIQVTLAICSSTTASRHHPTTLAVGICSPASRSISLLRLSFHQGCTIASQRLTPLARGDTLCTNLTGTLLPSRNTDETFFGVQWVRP
Method: (§1) From selected phage transfected into TG1, individual colonies were picked randomly for growth in 96 well plates. After IPTG induction according to standard protocols periplasmic fractions (penis) containing Fabs were prepared. […] In this assay, Flag-TNC-CD70 is captured by an anti-Flag mAb and binding of CD27-Fc is detected via a biotinylated anti-CD27 mAb and strep-HRP in the absence or presence of CD70 Fabs (FIGS. 2 and 3) or CD70 mAbs (FIG. 4). In FIG. 2B it can be seen that 27B3, which has an identical VH as 9D1, but contains a somewhat different light chain, seems to block binding of CD27 to CD70 more efficiently, which was in line with the better off rate of this Fab as measured on Biacore (data not shown). Table 3 indicates the blocking potency (expressed as IC50) for the various llama-human chimeric mAbs tested in the CD70 inhibition ELISA. […] FIG. 3 is a composite of an experiment testing llama CD70 Fabs for blocking activity (in the inhibition ELISA, see white bars) and for CD70 binding (binding ELISA, black bars). For the binding ELISA, Flag-TNC-CD70 is captured by an anti-Flag mAb and binding of the Fabs is detected using an anti-myc-HRP mAb, which recognizes the MYC tag fused to the C-terminus of the Fd fragment. For comparison purposes, known monoclonal antibodies to CD70 (SGN70 described in US 2010/0129362 A1, clone 1F6; and MDX69A7 described in WO2008/074004 FIGS. 5A and 5B) were tested in parallel. […] Of interest is clone 59D10, which as Fab has no blocking activity, but when converted into a chimeric IgG was antagonistic (see Table 3). Amino acid sequences of the VH and VL domains of binding and blocking llama-derived Fab clones are shown elsewhere herein (Tables 6-9).

[2] = target: T1, recombinant human CD70 (Flag-TNC-CD70); experiment: Biacore; recombinant human CD70 on CM5 chip; Fab injected
Method: Off-rates of the purified llama-derived anti-CD70 blocking Fabs were determined using the Biacore. Recombinant human CD70 was immobilized on a CM5 Biacore chip. The immobilization was performed in accordance with a method provided by Biacore and by using the NHS/EDC kit (Biacore AB): after activation of the chip, a solution of 50 μg/ml of recombinant CD70 in 10 mM acetate buffer with pH of 5 was prepared and 1 μl of this solution (50ng) was injected resulting in a surface density of approximately 1000 RU.
Fabs for the CD70 mAbs ARGX-110, MDX2H5 and SGN70 were prepared by […] digestion (SGN70 and MDX69A7 are described elsewhere herein, MDX2H5, also referred to as MDX1411, is described in WO2008/074004 FIGS. 1A and 1B). Fabs, at a concentration of approximately 100-400 μg/ml, were diluted 6-fold in hepes-buffered saline (0.1M Hepes, 1.5M NaCl, 30 mM EDTA, 0.5% v/v surfactant P20). They were injected (30 μl) and passed through the flow cells at a flow rate of 30 μl/min. After binding of the Fab to CD70, the off-rate was monitored for a period of 10 minutes. After the dissociation, the flow cell surfaces were regenerated by injecting 5 μl of 10 mM NaOH. Sometimes multiple injections of NaOH were needed to regenerate the surfaces depending on the affinity of the Fabs. Off-rate analysis was done by applying the BIAevaluation software. First, the sensogram of the blank runs were subtracted from those obtained with the coated flow cell. […] Moreover, the off-rate of CD27 for CD70 was determined as well.

[3] = target: T1, recombinant human CD70 (Flag-TNC-CD70); experiment: inhibition ELISA: Flag-TNC-CD70 captured by anti-Flag mAb, Fab titrated, remaining binding of CD27-Fc detected
Method: as §1

[4] = target: T2, human CD70 expressed on the surface of cells (human, UniProt P32970 1-193); experiment: cell-based or functional assay
T2 sequence (looked up): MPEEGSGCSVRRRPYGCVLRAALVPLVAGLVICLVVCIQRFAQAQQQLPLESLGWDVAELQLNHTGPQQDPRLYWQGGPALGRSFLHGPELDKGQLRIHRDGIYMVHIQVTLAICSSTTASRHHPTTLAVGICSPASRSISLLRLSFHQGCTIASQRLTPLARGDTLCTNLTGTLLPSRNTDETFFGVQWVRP

[5] = target: T1, recombinant human CD70 (Flag-TNC-CD70); experiment: Biacore; CD70 coated CM5 chip; Fab in periplasmic fraction
Method: Phage eluted from rounds 3, 4 and 5 of selection were transfected into TG1 and plated clonally; individual clones were picked randomly for further analysis. Periplasmic fractions containing Fabs were prepared from IPTG induced small scale cultures the off rate of each Fab was determined using a CD70 coated CM5 chip in a Biacore binding assay. Clones with Fab having off rates similar to that of 27B3 were sequenced.

B1: 24B6 chimeric llama-human mAb (antibody, human IgG1, V domains shown)
VH: EVQLQESGGGVVQPGGSLRLSCAASGFTFDDYAMSWVRQAPGKGLEWVSSIYMYDSSTYYADSVKGRFTISTDNAKNTVYLQMNSLKSEDTAVYYCAKDINRSYGSSWSHFGPIFSSWGQGTQVTVSS
VL: QPVLTQPSAVSVSLGQTARITCQGGYYTHWYQQKPGQAPVLVIYINNNRPSGIPERFSGSISGNTATLTISGAQVEDEADYYCQSGSSSTIPVFGGGTKLTVLG
IC50 [1]: 0.42 µg/mL

B4: 5B2 (Fab, V domains shown)
VH: QVQLVESGGDLVQPGGSLRLSCAASGFTVSNPAMSWVRQAPGKGLEWVSEITNYGYNRYYADSVKGRFTISTDNAKNTLYLQMNSLRSEDSAVYYCTASLGLEYGYGDWGQGTQVTVSS
VL: QSALTQPPSVSGTLGKTLTISCAGTSSDVGYGNYVSWYQQLPGTAPKLLIYRVSTRASGMPDRFSGSKSGNTASLTISGLQSEDEADYYCASYTTNNKPVFGGGTHLTVLG
notes: also called 5B2 Fab
IC50 (read off the curve) [3]: ~2 nM

B5: 9B2 chimeric llama-human mAb (antibody, human IgG1, V domains shown)
VH: QLQVVESGGGLMQPGGSLRLSCAASGFTFSGSAMSWVRQAPGKGLEWVSSIYSHSMYTYYADSVKSRFTISTDNAKNTLYLQMNSLKPDDTAVYYCAASSDYEGLFVSWGQGTQVTVSS
VL: QAVLTQPPSLSASPGSSVRLTCTLNSANSVGSYDISWYQQKAGSPPRYLLYYYSDSLSHQGSGVPSRFSGSTDASANAGLLLISGLQPEDEADYYCSAYNRGSHVFGGGTKLTVLG
IC50 [1]: 0.126 µg/mL
IC50 (ng/ml), IL-8 secretion in Raji / HT1080-CD27 co-culture assay [4]: 213 ng/mL

B10: 41H8 Fab (Fab, V domains shown)
VH: EVQLVESGGGLVQPGGSLRLSCAASGFTFSVYYMNWVRQAPGKGLEWVSDINNEGGTTYYADSVKGRFTISRDNSKNTLYLQMNSLRAEDTAVYYCARDAGYSNHVPIFDSWGQGTQVTVAS
VL: QAVVTQEPSFSVSPGGTVTLTCGLTSGSVTSTNFPTWYQQTPGQAPRLLIYNTNSRHSGVPDRFSGSILGNKAALTITGAQPEDESDYFCALFISNPSVEFGGGTQLTVLG
notes: Germlined 27B3 Fab, periplasmic fraction
koff [5]: 0.00022 s⁻¹

B11: 40F1 Fab (Fab, V domains shown)
VH: EVQLVESGGGLVQPGGSLRLSCAASGFTFSVYYMNWVRQAPGKGLEWVSDINNEGGATYYADSVKGRFTISRDNSKNSLYLQMNSLRAEDTAVYYCARDAGYSNHVPIFDSWGQGTQVTVSS
VL: QAVVTQEPSFSVSPGGTVTLTCGLKSGSVTSDNFPTWYQQTPGQAPRLLIYNTNTRHSGVPDRFSGSILGNKAALTITGAQADDEAEYFCALFISNPSVEFGGGTQLTVLG
notes: as for B10
koff [5]: 0.00016 s⁻¹

B12: 42D12 Fab (Fab, V domains shown)
VH: EVQLVESGGGLVQPGGSLRLSCAASGFTFSVYYMNWVRQAPGKGLEWVSDINNEGGTTYYADSVKGRFTISRDNSKNTLYLQMNSLRAEDTAVYYCVRDAGYSNHVPIFDSWGQGTQVTVSS
VL: QAVVTQEPSFSVSPGGTVTLTCGLTSGSVTSTNFPTWYQQTPGQAPRLLIYNTNTRHSGVPSRFSGSILGNKAALTITGAQADDEAEYFCALFISNPSVEFGGGTQLTVLG
notes: as for B10
koff [5]: 0.00016 s⁻¹

B13: 53F1 Fab (Fab, V domains shown)
VH: EVQLVESGGGLVQPGGSLRLSCAASGFTFSVYYMNWVRQAPGKGLEWVSDINNEGGTTYYADSVKGRFTISRDNAKNTLTLQMNSLKPEDTAVYYCVRDAGYSNHVPIFDSWGQGTQVTVAS
VL: QAVVTQEPSFSVSPGGTVTLTCGLKSGSVTSDNFPTWYQQTPGQAPRLLIYNTNTRHSGVPDRFSGSILGNKAALTITGAQADDESDYFCALFISNPSVEFGGGTQLTVLG
notes: as for B10
koff [5]: 0.00023 s⁻¹

Now from value to binder:

koff [2]: 8e-05 s⁻¹
IC50 (read off the curve) [3]: ~0.04 µg/mL
B2: 19G10 Fab (Fab, V domains shown)
VH: EVQLQESGGGVVQPGGSLRLSCAASGFTFDDYAMSWVRQAPGKGLEWVSSIYMYDSSTYYADSVKGRFTISTDNAKNTVYLQMNSLKSEDTAVYYCAKDINRSYGSSWSHFGPIFSSWGQGTQVTVSS
VL: NFMLTQPSAVSVSLGQTARITCQGGYYTHWYQQKPGQAPVLVIYVNNNRPSGIPERFSGSSSGNTATLTISGAQAEDEAAYYCQSGSSSTIPVFGGGTKLTVLG
notes: Llama-derived Fab

IC50 [1]: 0.092 µg/mL
IC50 (ng/ml), IL-8 secretion in Raji / HT1080-CD27 co-culture assay [4]: 19 ng/mL
B3: 5B2 chimeric llama-human mAb (antibody, human IgG1, V domains shown)
VH: QVQLVESGGDLVQPGGSLRLSCAASGFTVSNPAMSWVRQAPGKGLEWVSEITNYGYNRYYADSVKGRFTISTDNAKNTLYLQMNSLRSEDSAVYYCTASLGLEYGYGDWGQGTQVTVSS
VL: QSALTQPPSVSGTLGKTLTISCAGTSSDVGYGNYVSWYQQLPGTAPKLLIYRVSTRASGMPDRFSGSKSGNTASLTISGLQSEDEADYYCASYTTNNKPVFGGGTHLTVLG

koff [5]: 0.00025 s⁻¹
B6: 39C3 Fab (Fab, V domains shown)
VH: EVQLVASGGGLVQPGGSLRLSCAASGFTFSVYYMNWVRQAPGKGLEWVSDINNEGGTTYYADSVKGRFTISRDNSKNTLYLQMNSLRAEDTAVYYCARDAGYSNHVPIFDSWGQGTTVTVSS
VL: QAVVTQEPSFSVSPGGTVTLTCGLKSGSVTSDNFPTWYQQTPGQAPRLLIYNTNTRHSGVPSRFSGSILGNKAALTITGAQADDESDYYCALFISNPSVEFGGGTQLTVLG
notes: as for B10

koff [5]: 0.00012 s⁻¹
B7: 39D5 Fab (Fab, V domains shown)
VH: EVQLVESGGGLVQPGGSLRLSCAASGFTFSGYYMNWVRQAPGKGLEWVSDINNEGGTTYYADSVKGRFTISRDNAKNTLYLQMNSLRAEDTAVYYCVRDAGYSNHVPIFDSWGQGTTVTVAS
VL: QTVVTQEPSLTVSPGGTVTLTCGVTSGSVTSDNFPTWYQQTPGQAPRLLIYNTNTRHSGVPDRFSGSILGNKAALTITGAQPEDESDYYCALFISNPSVEFGGGTQLTVLG
notes: as for B10

koff [5]: 0.0002 s⁻¹
B8: 53G1 Fab (Fab, V domains shown)
VH: EVQLVESGGGLVQPGGSLRLSCAASGFTFSVYYMNWVRQAPGKGLEWVSDINNEGGTTYYADSVKGRFTISRDNAKNTLYLQMNSLKPEDTAVYYCVRDAGYSNHVPIFDSWGQGTTVIVSS
VL: QTVVTQEPSFSVSPGGTVTLTCGLTSGSVTSTNFPTWYQQTPGQAPRLLIYNTNSRHSGVPSRFSGSILGNKAALTITGAQADDESDYFCALFISNPSVEFGGGTQLTVLG
notes: as for B10

koff [2]: 0.00016 s⁻¹
IC50 (read off the curve) [3]: ~0.04 µg/mL
B9: 24F2 Fab (Fab, V domains shown)
VH: EVQLVESGGGLVQPGGSLRLSCAASGFTFSVYYMNWVRQAPGKGLEWVSDINNEGGTTYYADSVKGRFTISRDNAKNTLTLQMNSLKPEDTALYYCVRDAGYSNHVPIFDSWGQGTQVIVAS
VL: QSALTQPSAVSVSLGQTARITCRGDTLRNYHANWYRQKPGQAPVLVIYGDDIRPSGIPERFSGSRLGGTATLTVSGAQAEDEADYYCQSSDSSGYRVVFGGGTKLTVLG
notes: Llama-derived Fab
